Experimental data reported in the supplement of paper PMC9112550, “Optimization of the antimicrobial peptide Bac7 by deep mutational scanning” (BMC Biology, 2022).

test system: Escherichia coli TOP10; test: shrunken log2 fold change of peptide-encoding DNA abundance (4.5 h post-induction vs induction); higher = less antimicrobial activity (less host growth inhibition); details: time post-induction: 4.5 h; library: site-saturation at positions 5, 18, 19, 20
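Also: peptides expressed intracellularly from a pBAD plasmid library in pooled LB shake-flask culture, induced with 0.3% L-arabinose, DNA abundance read by NGS, three biological replicates, DESeq2 with apeglm shrinkage.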

Sequence | shrunken log2 fold change
RRIRVRPPRLPRPRPRPDPIPRP | -0.00485
RRIRVRPPRLPRPRPRPDPLPRP | -0.231
RRIRVRPPRLPRPRPRPDQKPRP | 0.002
RRIRVRPPRLPRPRPRPDSPPRP | 0.0663
RRIRVRPPRLPRPRPRPDTFPRP | -0.0845
RRIRVRPPRLPRPRPRPDTKPRP | -0.26
RRIRVRPPRLPRPRPRPDVIPRP | -0.0508
RRIRVRPPRLPRPRPRPDWDPRP | 0.0311
RRIRVRPPRLPRPRPRPDYGPRP | -0.133
RRIRVRPPRLPRPRPRPDYMPRP | 0.0631
RRIRVRPPRLPRPRPRPEAPPRP | 0.000205
RRIRVRPPRLPRPRPRPEDAPRP | 0.801
RRIRVRPPRLPRPRPRPEENPRP | 0.265
RRIRVRPPRLPRPRPRPEFVPRP | -0.262
RRIRVRPPRLPRPRPRPEGGPRP | 0.747
RRIRVRPPRLPRPRPRPEGLPRP | 0.0931
RRIRVRPPRLPRPRPRPEGNPRP | 0.00902
RRIRVRPPRLPRPRPRPEGPPRP | 0.239
RRIRVRPPRLPRPRPRPEGYPRP | -0.0123
RRIRVRPPRLPRPRPRPEINPRP | -0.00259
RRIRVRPPRLPRPRPRPELKPRP | -0.341
RRIRVRPPRLPRPRPRPELNPRP | -0.0839
RRIRVRPPRLPRPRPRPELPPRP | -0.0996
RRIRVRPPRLPRPRPRPELTPRP | 0.149
RRIRVRPPRLPRPRPRPEMYPRP | -0.19

Sequence | shrunken log2 fold change
RRIRVRPPRLPRPRPRPENKPRP | -0.134
RRIRVRPPRLPRPRPRPEPHPRP | -0.0157
RRIRVRPPRLPRPRPRPEPWPRP | 0.128
RRIRVRPPRLPRPRPRPEQCPRP | 0.171
RRIRVRPPRLPRPRPRPEQKPRP | -0.0196
RRIRVRPPRLPRPRPRPEQPPRP | 0.515
RRIRVRPPRLPRPRPRPERFPRP | -0.023
RRIRVRPPRLPRPRPRPERKPRP | 0.111
RRIRVRPPRLPRPRPRPERWPRP | 0.615
RRIRVRPPRLPRPRPRPESFPRP | -0.0103
RRIRVRPPRLPRPRPRPETGPRP | 0.206
RRIRVRPPRLPRPRPRPEWTPRP | 0.171
RRIRVRPPRLPRPRPRPFAVPRP | -0.00738
RRIRVRPPRLPRPRPRPFCDPRP | -0.218
RRIRVRPPRLPRPRPRPFCQPRP | -0.203
RRIRVRPPRLPRPRPRPFFVPRP | -0.0592
RRIRVRPPRLPRPRPRPFHMPRP | -0.54
RRIRVRPPRLPRPRPRPFIYPRP | -0.236
RRIRVRPPRLPRPRPRPFKMPRP | -0.398
RRIRVRPPRLPRPRPRPFLGPRP | -0.0486
RRIRVRPPRLPRPRPRPFMGPRP | -0.334
RRIRVRPPRLPRPRPRPFNCPRP | -0.0327
RRIRVRPPRLPRPRPRPFPAPRP | -0.121
RRIRVRPPRLPRPRPRPFPHPRP | -0.366
RRIRVRPPRLPRPRPRPFPSPRP | -0.127

Sequence | shrunken log2 fold change
RRIRVRPPRLPRPRPRPFPYPRP | -0.277
RRIRVRPPRLPRPRPRPFQNPRP | 0.00707
RRIRVRPPRLPRPRPRPFRWPRP | -0.0443
RRIRVRPPRLPRPRPRPFTFPRP | -0.0282
RRIRVRPPRLPRPRPRPFTGPRP | -0.115
RRIRVRPPRLPRPRPRPFVPPRP | -0.0478
RRIRVRPPRLPRPRPRPGDPPRP | 0.172
RRIRVRPPRLPRPRPRPGEFPRP | 0.119
RRIRVRPPRLPRPRPRPGGIPRP | 0.143
RRIRVRPPRLPRPRPRPGHGPRP | 0.00601
RRIRVRPPRLPRPRPRPGICPRP | -0.0598
RRIRVRPPRLPRPRPRPGMQPRP | 0.116
RRIRVRPPRLPRPRPRPGNCPRP | 0.0986
RRIRVRPPRLPRPRPRPGNVPRP | -0.393
RRIRVRPPRLPRPRPRPGPGPRP | 0.298
RRIRVRPPRLPRPRPRPGQHPRP | 0.0795
RRIRVRPPRLPRPRPRPGREPRP | -0.00937
RRIRVRPPRLPRPRPRPGSCPRP | 0.216
RRIRVRPPRLPRPRPRPGSTPRP | -0.311
RRIRVRPPRLPRPRPRPGTIPRP | -0.0277
RRIRVRPPRLPRPRPRPGTKPRP | 0.193
RRIRVRPPRLPRPRPRPGTWPRP | -0.0352
RRIRVRPPRLPRPRPRPGVCPRP | 0.186
RRIRVRPPRLPRPRPRPGVPPRP | 0.0752
RRIRVRPPRLPRPRPRPGVSPRP | -0.141
